Data taken from the DeepSol protein solubility set.

Assay: soluble on expression in E. coli; label from the status in PepcDB or PDB records

## DIGCYTLGALPPFREQDSATNMGSSLGISNGVFRSTDQVPVAVIGDSTFFHSGIEGVANAVYNNTAEIIVVLDNRSTAMTGQQPSPSTAIDIGNVCRAMGIEYVETFDPFDVDAGEKAVQQAAEYVKKTLKPAVIIAKRACALEVLEKVDSETPKAYVDSNRCT
  soluble on expression in E. coli: not soluble

## MEGSHHHHHHSQAQSKAQVLQSVAGQTLTVRCQYPPTGSLYEKKGWCKEASALVCIRLVTSSKPRTMAWTSRFTIWDDPDAGFFTVTMTDLREEDSGHYWCRIYRPSDNSVSKSVRFYLVVS
  soluble on expression in E. coli: soluble

## MSSQIRGSKQHEDVDPVTIKKIEEAYVMLNGPDGAKCSSLLKKNLTKDVIEKLKTKSTKLGANLYDCIRSGVYCLDALVGVYAPDAEAYTLFAPLFDKIIEDYHGLGPDQKQPPVDLGEGKTKEFPPLDPKGKYIKSTRIRCGRSLNGYQFNPCLTEDNYLEMEEKVKKAFSEFSDEELKGTYYPLDGMSKDTQNQLIADHFLFKEGDRHLQYANACNFWPKGRGIFHNNKKTFLIWVNEEDHLRIISMQEGSDVGAVLERLIKGVRGIEKQVQFSRDDRLGWLTFCPTNLGSTVRASVHIALPKLSAREDFKQICDKLDLQLRGIHGEHSESEGGVYDISNRARLGLSEYEAVKKMYDGVKNLIEMEEKET
  soluble on expression in E. coli: not soluble

## MGSDKIHHHHHHMLGINRKLEQLESDGTIIRVGLVGAGQMGRGMVSQIESMKGMRVVVTADIVLENVKLAYERAGVPKDEVIETDEISKAADAIQAGKVVATGDAELVTALSEVDVVVDATGIPNIGAKIAWDAILNKKHIVMLNVEADVTVGPLLKQMADACGVVYTGSAGDEPGAVMELYDFADALGFEVVALGKGKNNPLNVEANPQTAAEEAKRKGASPKMLASFQDGTKTMVEMTAVANATGFLPDKPGMNGFVGTVEELPAIFRRKEEGGQVENERIVEYINGVAPGVFAIVKSDKEEVNHEMTYLSMGEGPNYVLYRPYHLTSLETPISIARAHLYHEATIAPWQGLQAETVAVAKKDLAAGEFLDSIGGFTVYGTILTVTDAKEKGALPIGLVDAHVQVKRPIKKGEIITYDDVEQKKESTIWRLRRIQDETLVGKRELEAKV
  soluble on expression in E. coli: not soluble

## MGSDKIHHHHHHMTIARRKSREVTIGNVRIGGDNPVVVQSMTNTDTRDVEQTVEQINSLAEAGCEIVRVAVLNDDAAWAIRPIKDQVTVPLVADIHFDHRLAVSALEAGVDALRINPGNIGGQKNVDKVVDAAKAHGSVIRVGVNGGSLERDLVEKYCGPTPEAMVESALRHVRMLEDRNFDNIKISLKSSSVTDTVTAYRLLGQQCEYPLHIGVTEAGTMLRGSVKSSVGIGILLWQGIGDTLRVSLTEDPVAEMAVAWEILRSLGLRFRGPEIISCPTCGRTEIDLISLAGEIERRLQNETQSFKVAVMGCVVNGPGEAREADIGIAGGRDKGIIFRHGEVIRTVKGGSNLLAAFNEELDKFLAERQGR
  soluble on expression in E. coli: not soluble

## MSLIIAIQGGMAVGKTTALKIIEKVYPKIAISFEDISPVVDKINKHQLDNNKLDDYCEIQQLFIQHERDRYELVRDNEIVLMDYGAEEIAFYTQYFPKVAGYSWTLPSNLLLEVNRLKECFADYIIFLDADKTVLYQRQKNDFNRRRHFFKWYTHHLLPAKKHYLDTFSNVIHINTNHLNAEEVAEKIIDIIRKLTEGHHHHHH
  soluble on expression in E. coli: soluble

## EQLPVLQTVPFAGSAEPVSLTRESVERSVGEANMQEQRKRVHAMLRDYELQLRINSDASQQDAHLTPDSE
  soluble on expression in E. coli: not soluble

## ADTFNLAKDIHSRILSIDTHTDTPLWFKNGYSVGLRKDNMVSIPKMEEGKLDAQFLAAFIWQGKRDDASSQKAVESTTRLIQSIYDEVEQYKDFCGIALTEEDLVRLKNEGKKAFFIGIENGYAIGKDLKNIKKYKQMGVNYITLCHSYDNDICHSSTHTEDATQGLTQFGREVVKEMNRLGIMIDISHASEGTFWDVIKYSAQPIIASHSSSKALCDHDRNLTDEQLRALAKNGGVAQLCLLDAYINKKTKAASICDAVEHLDHMIKVAGIDHVGIGTDFDGGGGLQGCRGDNDLINLTIKMIEKGYTEEDLRKIWGGNLLRVMKQVQEAPLLSSKKRR
  soluble on expression in E. coli: not soluble

## MADINPNHTIYVNNLNEKVKKDELKRSLHMVFTQFGEIIQLMSFRKEKMRGQAHIVFKEVSSASNALRALQGFPFYGKPMRIQYAREDSDVISRAKGTFVEKRQKSTKIAKKPYEKPAKNGKSAAEPTQKEPQETDGPGLPNNILFCSNIPEGTEPEQIQTIFSQFPGLREVRWMPNTKDFAFIEYESEDLSEPARQALDNFRITPTQQITVKFASK
  soluble on expression in E. coli: not soluble
